These results are taken from publication PMC5062967 (Nucleic Acids Research, 2016).

For the assay, the target named is T1, human 5MP2 (ITC sample) (human, UniProt Q7L1Q6 1-419).
T1 sequence: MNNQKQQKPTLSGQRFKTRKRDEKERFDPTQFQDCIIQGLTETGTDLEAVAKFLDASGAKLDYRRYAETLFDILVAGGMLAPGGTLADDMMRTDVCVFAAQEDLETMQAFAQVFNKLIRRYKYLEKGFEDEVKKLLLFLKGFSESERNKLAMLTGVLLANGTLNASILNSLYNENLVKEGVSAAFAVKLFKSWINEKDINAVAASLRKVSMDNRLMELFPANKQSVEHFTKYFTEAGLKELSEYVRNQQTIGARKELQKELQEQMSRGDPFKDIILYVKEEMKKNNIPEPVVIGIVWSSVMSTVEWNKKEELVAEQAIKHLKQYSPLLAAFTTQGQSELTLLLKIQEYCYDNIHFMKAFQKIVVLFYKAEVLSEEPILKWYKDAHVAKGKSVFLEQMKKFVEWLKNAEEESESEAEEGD
Briefly: ITC.

B1: Human eIF2β_(53-136) carrying two K-boxes (domain or fragment)
chain: DLEADEEDTRKKDASDDLDDLNFFNQKKKKKKTKKIFDIDEAEEGVKDLKIESDVQEPTEPEDDLDIMLGNKKKKKKNVKFPDE
For B1, the affinity, expressed as Kd, was 1500 nM.
